Source: publication PMC6883840 (Proceedings of the National Academy of Sciences of the …, 2019)

T1: ThrB (homoserine kinase) (Escherichia coli, UniProt P00547)
T1 sequence (P00547 1-310): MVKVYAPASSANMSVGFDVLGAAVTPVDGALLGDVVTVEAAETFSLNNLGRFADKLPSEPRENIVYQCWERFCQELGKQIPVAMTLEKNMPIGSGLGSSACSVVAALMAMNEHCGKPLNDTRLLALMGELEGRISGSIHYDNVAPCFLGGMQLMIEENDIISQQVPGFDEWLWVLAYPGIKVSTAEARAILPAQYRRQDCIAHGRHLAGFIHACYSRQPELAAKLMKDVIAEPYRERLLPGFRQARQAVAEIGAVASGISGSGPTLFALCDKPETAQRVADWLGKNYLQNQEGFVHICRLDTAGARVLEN

B1: SerC (Escherichia coli K-12) (protein)
chain: AQIFNFSSGPAMLPAEVLKQAQQELRDWNGLGTSVMEVSHRGKEFIQVAEEAEKDFRDLLNVPSNYKVLFCHGGGRGQFAAVPLNILGDKTTADYVDAGYWAASAIKEAKKYCTPNVFDAKVTVDGLRAVKPMREWQLSDNAAYMHYCPNETIDGIAIDETPDFGADVVVAADFSSTILSRPIDVSRYGVIYAGAQKNIGPAGLTIVIVREDLLGKANIACPSILDYSILNDNGSMFNTPPTFAWYLSGLVFKWLKANGGVAEMDKINQQKAELLYGVIDNSDFYRNDVAKANRSRMNVPFQLADSALDKLFLEESFAAGLHALKGHRVVGGMRASIYNAMPLEGVKALTDFMVEFERRHG

Assays:
ThrB (homoserine kinase) = biological target: T1, ThrB (homoserine kinase); experiment: […]-NMR of ATP to ADP conversion; format: biochemical; settings: ATP hydrolysis without second substrate; 37 °C, 24 h
purified protein = substrate: N[C@H](C(=O)O)[C@H](O)CO; experiment: purified protein; settings: reverse direction: 4-hydroxythreonine to (3R)-3,4-dihydroxy-2-oxobutanoate

Row | Molecule | 31P-NMR of ATP to ADP conversion (ThrB (homoserine kinase)) | Km (purified protein) [mM] | kcat (purified protein)
1 | Nc1ncnc2c1ncn2[C@@H]1O[C@H](COP(=O)(O)OP(=O)(O)OP(=O)(O)O)[C@@H](O)[C@H]1O [ATP] | hydrolysis of ATP in the active site of ThrB in the absence of a second substrate | – | –
2 | B1 | – | 2.6 ± 0.7 | 2.0 ± 0.1 × 10^-5 s^-1
